Results as given in patent publication US20200002414A1 (published 2020).

B1: conditionally active antibody BAP048 (antibody, V domains shown)
VH: EVQLVQSGAEVKKPGESLRISCKGSGYTFTEYTMHWVRQAPGQGLEWMGGINTNNGGTGYNQKFKGRVTISADKSISTAYLQWSSLKASDTAMYYCAHGSLYSYGNSYFDYWGQGTLVTVSS
VL: AIQLTQSPSSLSASVGDRVTITCSATSSVSYMHWYLQKPGQSPQLLIYGTSNLASGVPDRFSGSGSGTDFTLKISRVEAEDVGVYYCQQRSSYPFTFGQGTKVEIK
B2: LC-G049C (antibody, V domains shown)
VH: EVQLQQSGPELVKPGASVKISCKTSGYTFTEYTMHWMKQSHRKSLEWIGGINTNNGGTGYNQKFKGKATLTVDKSSSTAYMELRSLTSEDSAVYFCARGSLYSYGNSYFDYWGQGTLVTVSS
VL: QIVLTQSPAIMSASPGEKVTITCSATSSVSYMHWFQQKPGTSPKLWIYCTSNLASGVPARFSGSGSGTSYSLTISRMEAEDAATYYCQQRSSYPFTFGQGTKVEIK
B3: LC-G049H (antibody, V domains shown)
VH: EVQLQQSGPELVKPGASVKISCKTSGYTFTEYTMHWMKQSHRKSLEWIGGINTNNGGTGYNQKFKGKATLTVDKSSSTAYMELRSLTSEDSAVYFCARGSLYSYGNSYFDYWGQGTLVTVSS
VL: QIVLTQSPAIMSASPGEKVTITCSATSSVSYMHWFQQKPGTSPKLWIYHTSNLASGVPARFSGSGSGTSYSLTISRMEAEDAATYYCQQRSSYPFTFGQGTKVEIK
B4: LC-G049P (antibody, V domains shown)
VH: EVQLQQSGPELVKPGASVKISCKTSGYTFTEYTMHWMKQSHRKSLEWIGGINTNNGGTGYNQKFKGKATLTVDKSSSTAYMELRSLTSEDSAVYFCARGSLYSYGNSYFDYWGQGTLVTVSS
VL: QIVLTQSPAIMSASPGEKVTITCSATSSVSYMHWFQQKPGTSPKLWIYPTSNLASGVPARFSGSGSGTSYSLTISRMEAEDAATYYCQQRSSYPFTFGQGTKVEIK
B5: LC-Q089E (antibody, V domains shown)
VH: EVQLQQSGPELVKPGASVKISCKTSGYTFTEYTMHWMKQSHRKSLEWIGGINTNNGGTGYNQKFKGKATLTVDKSSSTAYMELRSLTSEDSAVYFCARGSLYSYGNSYFDYWGQGTLVTVSS
VL: QIVLTQSPAIMSASPGEKVTITCSATSSVSYMHWFQQKPGTSPKLWIYGTSNLASGVPARFSGSGSGTSYSLTISRMEAEDAATYYCQERSSYPFTFGQGTKVEIK
B6: LC-R090H (antibody, V domains shown)
VH: EVQLQQSGPELVKPGASVKISCKTSGYTFTEYTMHWMKQSHRKSLEWIGGINTNNGGTGYNQKFKGKATLTVDKSSSTAYMELRSLTSEDSAVYFCARGSLYSYGNSYFDYWGQGTLVTVSS
VL: QIVLTQSPAIMSASPGEKVTITCSATSSVSYMHWFQQKPGTSPKLWIYGTSNLASGVPARFSGSGSGTSYSLTISRMEAEDAATYYCQQHSSYPFTFGQGTKVEIK
B7: LC-S092D (antibody, V domains shown)
VH: EVQLQQSGPELVKPGASVKISCKTSGYTFTEYTMHWMKQSHRKSLEWIGGINTNNGGTGYNQKFKGKATLTVDKSSSTAYMELRSLTSEDSAVYFCARGSLYSYGNSYFDYWGQGTLVTVSS
VL: QIVLTQSPAIMSASPGEKVTITCSATSSVSYMHWFQQKPGTSPKLWIYGTSNLASGVPARFSGSGSGTSYSLTISRMEAEDAATYYCQQRSDYPFTFGQGTKVEIK
B8: LC-S092V (antibody, V domains shown)
VH: EVQLQQSGPELVKPGASVKISCKTSGYTFTEYTMHWMKQSHRKSLEWIGGINTNNGGTGYNQKFKGKATLTVDKSSSTAYMELRSLTSEDSAVYFCARGSLYSYGNSYFDYWGQGTLVTVSS
VL: QIVLTQSPAIMSASPGEKVTITCSATSSVSYMHWFQQKPGTSPKLWIYGTSNLASGVPARFSGSGSGTSYSLTISRMEAEDAATYYCQQRSVYPFTFGQGTKVEIK
B9: LC-S030D (antibody, V domains shown)
VH: EVQLQQSGPELVKPGASVKISCKTSGYTFTEYTMHWMKQSHRKSLEWIGGINTNNGGTGYNQKFKGKATLTVDKSSSTAYMELRSLTSEDSAVYFCARGSLYSYGNSYFDYWGQGTLVTVSS
VL: QIVLTQSPAIMSASPGEKVTITCSATSSVDYMHWFQQKPGTSPKLWIYGTSNLASGVPARFSGSGSGTSYSLTISRMEAEDAATYYCQQRSSYPFTFGQGTKVEIK
B10: LC-T096D (antibody, V domains shown)
VH: EVQLQQSGPELVKPGASVKISCKTSGYTFTEYTMHWMKQSHRKSLEWIGGINTNNGGTGYNQKFKGKATLTVDKSSSTAYMELRSLTSEDSAVYFCARGSLYSYGNSYFDYWGQGTLVTVSS
VL: QIVLTQSPAIMSASPGEKVTITCSATSSVSYMHWFQQKPGTSPKLWIYGTSNLASGVPARFSGSGSGTSYSLTISRMEAEDAATYYCQQRSSYPFDFGQGTKVEIK
B11: LC-F097D (antibody, V domains shown)
VH: EVQLQQSGPELVKPGASVKISCKTSGYTFTEYTMHWMKQSHRKSLEWIGGINTNNGGTGYNQKFKGKATLTVDKSSSTAYMELRSLTSEDSAVYFCARGSLYSYGNSYFDYWGQGTLVTVSS
VL: QIVLTQSPAIMSASPGEKVTITCSATSSVSYMHWFQQKPGTSPKLWIYGTSNLASGVPARFSGSGSGTSYSLTISRMEAEDAATYYCQQRSSYPFTDGQGTKVEIK
B12: LC-F097E (antibody, V domains shown)
VH: EVQLQQSGPELVKPGASVKISCKTSGYTFTEYTMHWMKQSHRKSLEWIGGINTNNGGTGYNQKFKGKATLTVDKSSSTAYMELRSLTSEDSAVYFCARGSLYSYGNSYFDYWGQGTLVTVSS
VL: QIVLTQSPAIMSASPGEKVTITCSATSSVSYMHWFQQKPGTSPKLWIYGTSNLASGVPARFSGSGSGTSYSLTISRMEAEDAATYYCQQRSSYPFTEGQGTKVEIK
B13: LC-Y031C (antibody, V domains shown)
VH: EVQLQQSGPELVKPGASVKISCKTSGYTFTEYTMHWMKQSHRKSLEWIGGINTNNGGTGYNQKFKGKATLTVDKSSSTAYMELRSLTSEDSAVYFCARGSLYSYGNSYFDYWGQGTLVTVSS
VL: QIVLTQSPAIMSASPGEKVTITCSATSSVSCMHWFQQKPGTSPKLWIYGTSNLASGVPARFSGSGSGTSYSLTISRMEAEDAATYYCQQRSSYPFTFGQGTKVEIK

What was measured:
human Ror2 [1] = target: T1, human Ror2 (human, UniProt Q01974 34-403, limits assumed); test: ELISA
T1 construct: also called hROR2; receptor tyrosine kinase-like orphan receptor 2
T1 sequence (Q01974 34-403 limits assumed): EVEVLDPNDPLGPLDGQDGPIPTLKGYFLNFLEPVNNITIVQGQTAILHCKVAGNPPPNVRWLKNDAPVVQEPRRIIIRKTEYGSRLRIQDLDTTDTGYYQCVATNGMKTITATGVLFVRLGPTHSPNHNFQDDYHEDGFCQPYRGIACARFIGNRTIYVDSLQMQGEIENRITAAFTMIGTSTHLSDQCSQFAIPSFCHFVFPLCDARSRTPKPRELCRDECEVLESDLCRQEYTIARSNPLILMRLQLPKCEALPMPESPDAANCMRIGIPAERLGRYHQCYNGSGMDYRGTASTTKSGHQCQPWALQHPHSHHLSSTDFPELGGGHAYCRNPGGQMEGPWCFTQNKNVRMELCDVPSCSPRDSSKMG

cynomolgus Ror2 = target: T2, cynomolgus Ror2 (cynomolgus, UniProt A0A7N9D5U8 34-403); test: ELISA
T2 construct: also called cynoROR2
T2 sequence (A0A7N9D5U8 entry or part of it): as the sequence (Q01974 34-403 limits assumed) above, with L5P, T212A, M289T, T320A counted along it

mouse Ror2 = target: T3, mouse Ror2 (mouse, UniProt Q9Z138 34-403, limits assumed); test: ELISA
T3 construct: also called mROR2
T3 sequence (Q9Z138 34-403 limits assumed): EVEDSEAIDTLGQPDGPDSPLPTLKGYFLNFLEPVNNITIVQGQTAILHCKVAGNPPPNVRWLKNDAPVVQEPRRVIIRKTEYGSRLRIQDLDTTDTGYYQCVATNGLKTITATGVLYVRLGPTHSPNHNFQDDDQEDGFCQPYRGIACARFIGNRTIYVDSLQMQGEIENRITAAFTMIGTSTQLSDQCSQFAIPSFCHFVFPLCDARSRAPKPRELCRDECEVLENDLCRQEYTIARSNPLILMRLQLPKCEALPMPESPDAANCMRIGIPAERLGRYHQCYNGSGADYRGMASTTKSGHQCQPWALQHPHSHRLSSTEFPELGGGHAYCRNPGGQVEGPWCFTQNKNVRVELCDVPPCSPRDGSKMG

human Ror2 [2] = target: T1, human Ror2; test: ELISA, human Ror2, pH 6.0
human Ror2 [3] = target: T1, human Ror2; test: ELISA, human Ror2, pH 7.4
human Ror2 [4] = target: T1, human Ror2; test: ELISA, human Ror2; ratio of signal at pH 6.0 to pH 7.4

Binder | EC50 (human Ror2 [1]) [µg/mL] | EC50 (cynomolgus Ror2) [µg/mL] | EC50 (mouse Ror2) [µg/mL] | Affinity ELISA pH 6.0 (human Ror2 [2]) | Affinity ELISA pH 7.4 (human Ror2 [3]) | ratio, pH 6.0/7.4 (human Ror2 [4])
B1 | 0.201 | 0.327 | 7.65 |  |  | 
B2 |  |  |  | 0.468 | 0.133 | 3.52
B3 |  |  |  | 1.87 | 0.118 | 15.9
B4 |  |  |  | 0.66 | 0.268 | 2.46
B5 |  |  |  | 0.438 | 0.251 | 1.74
B6 |  |  |  | 0.56 | 0.256 | 2.19
B7 |  |  |  | 1.13 | 1.12 | 1
B8 |  |  |  | 1.23 | 1.18 | 1.04
B9 |  |  |  | 0.733 | 0.252 | 2.91
B10 |  |  |  | 0.755 | 0.474 | 1.59
B11 |  |  |  | 0.19 | 0.107 | 1.77
B12 |  |  |  | 0.489 | 0.215 | 2.28
B13 |  |  |  | 1.34 | 0.7 | 1.92
